Experiment [1] addresses T1, human GPRC5D (human, UniProt Q9NZD1 1-345).
T1 construct: on transfected HEK293/RBL cells or endogenous on myeloma cells (H929, MM1R, OPM2, LP1, JIM3, patient plasma cells); also called G protein-coupled receptor class C group 5 member D; hGPRC5D
Nature of the experiment: FACS, human GPRC5D cells.

Experiment [2] deals with T2, cyno GPRC5D (cyno, UniProt Q9NZD1 1-343 (human entry)).
T2 chain: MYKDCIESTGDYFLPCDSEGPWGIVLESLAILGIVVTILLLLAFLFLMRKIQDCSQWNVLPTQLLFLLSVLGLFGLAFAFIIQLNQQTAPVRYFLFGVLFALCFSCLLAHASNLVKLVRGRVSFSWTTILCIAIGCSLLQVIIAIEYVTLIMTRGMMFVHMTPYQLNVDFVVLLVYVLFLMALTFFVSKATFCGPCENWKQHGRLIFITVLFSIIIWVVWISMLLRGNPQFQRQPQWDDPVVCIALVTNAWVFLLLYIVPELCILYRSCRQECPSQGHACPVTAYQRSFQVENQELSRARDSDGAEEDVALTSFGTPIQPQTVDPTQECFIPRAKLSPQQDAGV
The experiment can be described thus: cell-based or functional assay.

Experiment [3] deals with T3, murine GPRC5D (murine, UniProt Q9JIL6 1-344).
T3 construct: also called mouse GPRC5D
T3 sequence: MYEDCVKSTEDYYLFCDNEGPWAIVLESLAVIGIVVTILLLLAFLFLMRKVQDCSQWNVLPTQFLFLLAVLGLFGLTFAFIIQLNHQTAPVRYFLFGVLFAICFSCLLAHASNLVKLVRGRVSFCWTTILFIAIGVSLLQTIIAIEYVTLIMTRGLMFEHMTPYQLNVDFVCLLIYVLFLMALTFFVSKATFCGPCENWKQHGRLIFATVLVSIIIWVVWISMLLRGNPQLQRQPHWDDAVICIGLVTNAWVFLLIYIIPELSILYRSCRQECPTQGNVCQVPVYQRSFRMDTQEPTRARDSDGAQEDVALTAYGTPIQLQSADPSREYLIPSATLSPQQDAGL
Nature of the experiment: FACS, murine GPRC5D.

Experiment [4] concerns the target T1, human GPRC5D. Nature of the experiment: FACS binding to plasma cells in MM patient MM303BM bone marrow MNCs.
For experiment [5], the target named is T1, human GPRC5D. Nature of the experiment: FACS binding to plasma cells in MM patient MM305BM bone marrow MNCs.
For experiment [6], the target named is T2, cyno GPRC5D. The experiment can be described thus: cell-based or functional assay.
In experiment [7] the target is T1, human GPRC5D. The experiment can be described thus: cell-based or functional assay.
Experiment [8] addresses T1, human GPRC5D. Nature of the experiment: FACS titration, human GPRC5D HEK293 cells.

T1 sequence (Q9NZD1 whole entry): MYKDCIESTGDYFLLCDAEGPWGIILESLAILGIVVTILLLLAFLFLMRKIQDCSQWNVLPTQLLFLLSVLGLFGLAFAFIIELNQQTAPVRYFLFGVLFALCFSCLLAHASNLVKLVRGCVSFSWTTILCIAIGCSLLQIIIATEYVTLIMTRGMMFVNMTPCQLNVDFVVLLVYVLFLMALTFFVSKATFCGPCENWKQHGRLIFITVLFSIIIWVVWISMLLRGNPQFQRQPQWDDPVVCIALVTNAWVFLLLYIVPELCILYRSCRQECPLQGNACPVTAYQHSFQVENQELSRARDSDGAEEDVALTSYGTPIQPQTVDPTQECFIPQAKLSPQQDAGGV

B1: GC5B594 (antibody, V domains shown)
VH: QVTLKESGPVLVKPTETLTLTCTVSGFSLTSYNVHWIRQPPGKALEWLAVIWAGGSTNYNSALKSRLTISKDTSKSQVVLTMTNMRAEDTATYYCARDAIRLRFAYWGQGTLVTVSS
VL: EIVMTQSPATLSVSPGERATLSCKASQNVATHVGWYQQKPGQAPRLLIYSASYRYSGIPARFSGSGSGTEFTLTISSLQSEDFAVYYCQQYNRYPYTFGQGTKLEIK
notes: GC5B540 PTM variant
With B1, the binding result in experiment [1] is “binds”.

B2: GCDB32 (bispecific antibody, human IgG4 S228P, lambda, F234A L235A)
heavy 1: not shown
VL: not shown
heavy 2: EVQLVESGGGLVQPGGSLRLSCAASGFTFNTYAMNWVRQAPGKGLEWVARIRSKYNNYATYYAASVKGRFTISRDDSKNSLYLQMNSLKTEDTAVYYCARHGNFGNSYVSWFAYWGQGTLVTVSSASTKGPSVFPLAPCSRSTSESTAALGCLVKDYFPEPVTVSWNSGALTSGVHTFPAVLQSSGLYSLSSVVTVPSSSLGTKTYTCNVDHKPSNTKVDKRVESKYGPPCPPCPAPEAAGGPSVFLFPPKPKDTLMISRTPEVTCVVVDVSQEDPEVQFNWYVDGVEVHNAKTKPREEQFNSTYRVVSVLTVLHQDWLNGKEYKCKVSNKGLPSSIEKTISKAKGQPREPQVYTLPPSQEEMTKNQVSLTCLVKGFYPSDIAVEWESNGQPENNYKTTPPVLDSDGSFLLYSKLTVDKSRWQEGNVFSCSVMHEALHNHYTQKSLSLSLGK
light: QTVVTQEPSLTVSPGGTVTLTCRSSTGAVTTSNYANWVQQKPGQAPRGLIGGTNKRAPGTPARFSGSLLGGKAALTLSGVQPEDEAEYYCALWYSNLWVFGGGTKLTVLGQPKAAPSVTLFPPSSEELQANKATLVCLISDFYPGAVTVAWKADSSPVKAGVETTTPSKQSNNKYAASSYLSLTPEQWKSHRSYSCQVTHEGSTVEKTVAPTECS
notes: IgG4-PAA by Fab arm exchange; also called GC5B81 x CD3B219; copies: 1 + 1 + 1 + 1
Turning to B2, the “T cell mediated target cell killing, Cyno GPRC5D EC50” value in experiment [2] was determined as 0.19 nM. This molecule also came in with an MFI in experiment [3] of 1150 MFI. Moreover, the EC50 in experiment [4] is 16.1 nM; in experiment [5], 70.4 nM. Moreover, the “T-cell redirection cytotoxicity EC50, cyno GPRC5D HEK cells” value in experiment [6] was 0.07 nM. Besides, the “T-cell redirection cytotoxicity EC50, human GPRC5D HEK cells” value in experiment [7] is 0.04 nM.

B3: GCDB53 (bispecific antibody, IgG4, V domains shown)
VH 1: not shown
VL 1: not shown
VH 2: EVQLVESGGGLVQPGGSLRLSCAASGFTFNTYAMNWVRQAPGKGLEWVARIRSKYNNYATYYAASVKGRFTISRDDSKNSLYLQMNSLKTEDTAVYYCARHGNFGNSYVSWFAYWGQGTLVTVSS
VL 2: QTVVTQEPSLTVSPGGTVTLTCRSSTGAVTTSNYANWVQQKPGQAPRGLIGGTNKRAPGTPARFSGSLLGGKAALTLSGVQPEDEAEYYCALWYSNLWVFGGGTKLTVL
notes: IgG4-PAA by Fab arm exchange; CD3 arm also F405L, R409K; also called GC5B465 x CD3B219
On to B3, for which, in experiment [3], the MFI was determined as 2660 MFI. The EC50 in experiment [4] worked out at 3.98 nM; in experiment [5], 10.2 nM. The “T-cell redirection cytotoxicity EC50, cyno GPRC5D HEK cells” value in experiment [6] was 0.36 nM. In experiment [7], the “T-cell redirection cytotoxicity EC50, human GPRC5D HEK cells” value amounted to 0.08 nM.

B4: GCDB61 (bispecific antibody, IgG4, V domains shown)
VH 1: EVQLVQSGAEVKKPGESLKISCKGSGYSFTSYFIGWVRQMPGKGLEWMGIIYPGKSDTRYSPSFQGQVTISADKSISTAYLQWSSLKASDTAMYYCARVYSFGGRHKALFDYWGQGTLVTVSS
VL 1: EIVLTQSPATLSLSPGERATLSCRASQSVSSYLAWYQQKPGQAPRLLIYDASNRATGIPARFSGSGSGTDFTLTISSLEPEDFAVYYCQQRSNWPLTFGQGTKVEIK
VH 2: B3 VH 2
VL 2: B3 VL 2
notes: IgG4-PAA by Fab arm exchange; CD3 arm also F405L, R409K; also called GC5B483 x CD3B219
The molecule B4 registered an MFI in experiment [3] of 3550 MFI. Further, the EC50 in experiment [4] stood at 5.53 nM; in experiment [5], 6.93 nM. Also, the “T-cell redirection cytotoxicity EC50, cyno GPRC5D HEK cells” value in experiment [6] was 1.22 nM. The “T-cell redirection cytotoxicity EC50, human GPRC5D HEK cells” value in experiment [7] was found to be 0.03 nM.

B5: GCDB44 (bispecific antibody, IgG4, V domains shown)
VH 1: not shown
VL 1: B4 VL 1
VH 2: B3 VH 2
VL 2: B3 VL 2
notes: IgG4-PAA bispecific; also called GC5B320 x CD3B219
Take B5: the binding result in experiment [8] is reported as “binds”.
